Among the data in article PMC5366180 are binding signal, Kd and binding signal (% binding probability) values, retold here.

Series [1] deals with T1, protein tyrosine kinase-7 (PTK7) ((Jurkat T-cells)) (UniProt Q13308).
T1 sequence: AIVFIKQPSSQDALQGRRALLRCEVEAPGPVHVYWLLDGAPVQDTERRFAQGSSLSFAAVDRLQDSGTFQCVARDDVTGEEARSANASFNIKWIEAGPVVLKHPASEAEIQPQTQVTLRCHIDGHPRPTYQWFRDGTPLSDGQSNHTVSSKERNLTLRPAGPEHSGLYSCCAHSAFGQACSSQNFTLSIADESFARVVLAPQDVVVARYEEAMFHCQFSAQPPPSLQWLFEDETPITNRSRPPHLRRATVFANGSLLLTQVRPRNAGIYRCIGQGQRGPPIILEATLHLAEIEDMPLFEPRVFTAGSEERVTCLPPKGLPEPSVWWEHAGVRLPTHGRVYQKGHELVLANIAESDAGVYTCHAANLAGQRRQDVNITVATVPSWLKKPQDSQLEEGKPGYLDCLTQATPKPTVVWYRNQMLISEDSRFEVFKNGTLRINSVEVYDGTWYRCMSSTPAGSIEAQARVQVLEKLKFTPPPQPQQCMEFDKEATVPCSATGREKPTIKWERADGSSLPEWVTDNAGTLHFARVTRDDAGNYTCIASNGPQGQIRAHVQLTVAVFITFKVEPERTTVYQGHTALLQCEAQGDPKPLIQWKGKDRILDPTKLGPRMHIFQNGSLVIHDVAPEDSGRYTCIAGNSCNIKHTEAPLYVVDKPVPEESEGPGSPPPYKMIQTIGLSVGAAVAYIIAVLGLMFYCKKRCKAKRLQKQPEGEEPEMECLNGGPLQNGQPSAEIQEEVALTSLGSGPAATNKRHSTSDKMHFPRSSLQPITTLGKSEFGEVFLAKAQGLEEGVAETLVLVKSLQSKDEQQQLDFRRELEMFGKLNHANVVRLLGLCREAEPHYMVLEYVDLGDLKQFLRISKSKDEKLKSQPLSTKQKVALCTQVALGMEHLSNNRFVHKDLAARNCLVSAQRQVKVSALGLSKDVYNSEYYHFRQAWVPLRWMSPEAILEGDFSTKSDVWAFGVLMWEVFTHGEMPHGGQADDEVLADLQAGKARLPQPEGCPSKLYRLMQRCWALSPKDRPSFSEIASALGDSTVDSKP
Briefly: competition (AFM single-molecule force spectroscopy). To be noted: 1 uM free sgc8c blocks; 38.3% before block; Aptamer tips prepared and stored in PBS; fixed Jurkat T-cells on Cell-Tak glass; pulling speeds 500-24000 nm/s; measurement buffer, pH and temperature not …; scale: % residual binding probability of tip sgc8c.

For series [2], the target named is T1, protein tyrosine kinase-7 (PTK7) ((Jurkat T-cells)). The series can be described thus: cited value. To be noted: 5' NH2 or 5' SH; Aptamer tips prepared and stored in PBS; fixed Jurkat T-cells on Cell-Tak glass; pulling speeds 500-24000 nm/s; measurement buffer, pH and temperature not …; cited from earlier work.
Series [3] has the same target. Briefly: AFM single-molecule force spectroscopy. To be noted: fixed Jurkat T-cells on Cell-Tak glass, pulling speeds 500-24000 nm/s, measurement buffer, pH and temperature not ….

pKd: −log10 of the molar value.

On to “ATCTAACTGCTGCGCCGCGAAAATACTGTACGGTTAGA [sgc8c (free)]”, for which, in series [1], the binding signal worked out at 10.2.

The pKd is −log10 of the Kd, conventionally taken in molar units. As to “ATCTAACTGCTGCGCCGCGAAAATACTGTACGGTTAGA [sgc8c (tip-tethered)]”, the pKd in series [2] is 9.10. In addition, the binding signal (% binding probability) in series [3] (koff 5.16 ± 0.19 s-1, x_beta 0.65 ± 0.01 Å, 5' NH2 or 5' SH, Aptamer tips prepared and stored in PBS) was found to be 38.3.

As for “CACCGGGAGGATAGTTCGGTGGCTGTTCAGGGTCTCCTCCCGGTG [TDO5]”, the binding signal (% binding probability) in series [3] (background level, stated not to bind PTK7, 5' NH2, Aptamer tips prepared and stored in PBS) was 8.27.
